This is an account of results in paper PMC5457438.

Data set [1] deals with T1, MaeR D54N D54N (Lacticaseibacillus (Lactobacillus) casei BL23), ORF:6e0afda8.
T1 sequence: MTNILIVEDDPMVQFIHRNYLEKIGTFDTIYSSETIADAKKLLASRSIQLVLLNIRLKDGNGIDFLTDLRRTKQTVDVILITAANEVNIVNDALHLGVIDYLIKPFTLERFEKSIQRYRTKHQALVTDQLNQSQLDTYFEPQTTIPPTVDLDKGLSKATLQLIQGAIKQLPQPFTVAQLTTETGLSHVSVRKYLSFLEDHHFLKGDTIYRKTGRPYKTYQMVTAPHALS
The experiment in a line: EMSA. The note with it: EMSA: 15 ul of 2.5 mM Tris-HCl pH 7.5, 100 mM NaCl, 25 mM MgCl2, 0.25 mM EDTA, 0.25 mM DTT, 10% glycerol, 1.5 ug salmon sperm DNA, 100 ng DNA, 62-375 ng ….

The test system of data set [2] is T2, MaeR D54A D54A (Lacticaseibacillus (Lactobacillus) casei BL23), ORF:6e0afda8.
T2 sequence: T1 sequence with N54A
The experiment in a line: EMSA. To be noted: EMSA: 15 ul of 2.5 mM Tris-HCl pH 7.5, 100 mM NaCl, 25 mM MgCl2, 0.25 mM EDTA, 0.25 mM DTT, 10% glycerol, 1.5 ug salmon sperm DNA, 100 ng DNA, 62-375 ng …. Background: In EMSA bound probe runs differently from free probe, usually more slowly.

For data set [3], the system named is T3, MaeR full length (MaeRFL) (Lacticaseibacillus (Lactobacillus) casei BL23), ORF:6e0afda8.
T3 sequence: T1 sequence with N54D
As to the kind of experiment: EMSA. The note with it: EMSA: 15 ul of 2.5 mM Tris-HCl pH 7.5, 100 mM NaCl, 25 mM MgCl2, 0.25 mM EDTA, 0.25 mM DTT, 10% glycerol, 1.5 ug salmon sperm DNA, 100 ng DNA, 62-375 ng ….

The target of data set [4] is recombinant complete cytoplasmic portion of MaeK (MaeKC) (Lactobacillus casei). The experiment in a line: SEC; gel filtration chromatography of MaeKC (Superdex200 16/60); single peak. A general note: SEC sorts molecules by how far they enter the pores of the column.

Where a chain is given by its changes, count along the chain named.

Consider “CGTTGATTTGTTGGGTGTAACCGTCTTGTTCTCCATGTTTCCTTACCCCCAATCTTTTGTTACTTACAGCATATTGTAAGCGCTTCATCAGGGGAAGATTATTTAACTTATTAAACCATAAACCCATTTATTTAAGCGATTGTTTTACTATTCACAAGATGGTTTCTCTACTGAACAGGAGTATGATCATGAAAATAAAAGGATGGCGGCTATGGGGCT (double strand) [mae promoter (maeP-maeK intergenic region, 219 bp)]”, for which the values for the binding result in data set [1], in data set [2] and in data set [3] were “binds”, “no binding” and “binds”, respectively.

A word on the stoichiometry N: it is a count of units in the complex or per binding partner. On to “recombinant complete cytoplasmic portion of MaeK (MaeKC) (domain or fragment)”, for which, in data set [4], the stoichiometry N was 2.
